Residue numbers refer to the chain shown, from its start.

The test system of test [1] is peptide-HLA-A*02:01 yeast-display library. The test is described as follows: Selection of the peptide-HLA-A*02:01 yeast-display library by multimerized TCR with deep sequencing. The settings on record: for cross-reactivity (breadth of tolerated amino acids per peptide position): round 3, accounting for peptide enrichment. In kind it is binding, human.
A further test addresses T1, MMDFFNAQM-HLA-A*02:01 (Homo sapiens, UniProt P04439+P26368, D140Y/D185E/D98H/E176V/E277Q/G131W/G231S/I119V/I121R/I166T/I218V/N151K/N90K/P208A/P217A/Q86G/Q94H/R138H/R169H).
T1 construct: HLA-A*02:01 (1-275); BirA biotinylation site (implied by BirA biotinylation); made in house
In words: Surface plasmon resonance of TCR binding to immobilized […]-HLA-A*02:01. The settings on record: BIAcore T100, 25° C., equilibrium data, 1:1 binding model. For orientation: In SPR one partner is held on a chip, and binding of the other changes the refractive index at the surface.

Description for MMDFFNAQM-HLA-A*02:01: Inclusion bodies containing the separate proteins were dissolved in 8 M urea, 40 mM Tris-HCl pH 8.0, 10 mM EDTA, and 10 mM DTT. […] After 72 hours at 4° C., the protein was dialyzed in 10 L of 10 mM Tris-HCl and purified via weak ion exchange using a DEAE cellulose column. The protein elution was purified using size exclusion chromatography on a Superdex 200 column and ion-exchange chromatography on a 5/50 Mono Q column (GE Healthcare). Protein was biotinylated overnight with birA ligase, 100 μM biotin, 40 mM Bicine pH 8.3, 10 mM ATP, and 10 mM Magnesium Acetate at 4° C. after buffer-exchange to 1×HBS pH 7.2 in a 30 kDa filter (Millipore) before being run on a size exclusion Superdex 200 column.
A different flow cell was immobilized with non-relevant peptide-HLA-A2 to serve as blank control. […] Injections of TCR were stopped after 60 s to allow sufficient time for SPR signals to reach plateau. The dissociation constant (KD) was obtained by fitting equilibrium data with a 1:1 binding model using BIAcore evaluation software.

B1: TCR 2A: TIL TCR of Patient A, TRAV19/TRBV10-1; alpha chain SEQ ID NO: 258, beta chain SEQ ID NO: 259 (protein)
alpha: QKVTQAQTEISVVEKEDVTLDCVYETRDTTYYLFWYKQPPSGELVFLIRRNSFDEQNEISGRYSWNFQKSTSSFNFTITASQVVDSAVYFCALSEARGGATNKLIFGTGTLLAVQPNIQNPDPAVYQLRDSKSSDKSVCLFTDFDSQTNVSQSKDSDVYITDKCVLDMRSMDFKSNSAVAWSNKSDFACANAFNNSIIPEDTFFPSPESS
beta: EITQSPRHKITETGRQVTLACHQTWNHNNMFWYRQDLGHGLRLIHYSYGVQDTNKGEVSDGYSVSRSNTEDLPLTLESAASSQTSVYFCASSRDTVNTEAFFGQGTRLTVVEDLKNVFPPEVAVFEPSEAEISHTQKATLVCLATGFYPDHVELSWWVNGKEVHSGVCTDPQPLKEQPALNDSRYALSSRLRVSATFWQNPRNHFRCQVQFYGLSENDEWTQDRAKPVTQIVSAEAWGRAD
As for B1, the “enrichment of peptides / HLA-linked epitope tag from the library” value in test [1] (HLA-A*02:01 library) is listed as “enriched peptides from the library”. In test [1], the “cross-reactivity (breadth of tolerated amino acids per peptide position)” value is “more cross-reactive”.

B2: TCR 3B: TIL TCR of Patient B, TRAV19/TRBV10-1; alpha chain SEQ ID NO: 258, beta chain SEQ ID NO: 260 (protein)
alpha: B1 alpha
beta: B1 beta with T95F, N97S, T98N, A100Q, F101Y, Q104P, V111T
With B2, the “affinity (dissociation constant, KD)” value with MMDFFNAQM-HLA-A*02:01 is given as “could not be determined”. For the same molecule, the “TCR tetramer staining of selected library yeast” value in test [1] (400 nM TCR tetramer, over rounds of selection) is “tetramer stained yeast gradually increased across the rounds of selection”. Moreover, the “enrichment of peptides / HLA-linked epitope tag from the library” value in test [1] (HLA-A*02:01 library) is given as “enriched peptides from the library”. Also, the “unique peptides selected at round 3” value in test [1] (HLA-A*02:01 library, all four peptide lengths, deep sequencing) is 66. Further, in test [1], the “cross-reactivity (breadth of tolerated amino acids per peptide position)” value is “relatively specific”.
